Test results reported in the supplement of paper PMC10126150.
± gives the standard deviation of the averaged measurements.

Tested on: ATP
Test: switch fluorescence ratio, 500 uM ATP over buffer (Cy3 cluster intensity, sum of 5 cycles each) (fold (ratio)); higher = stronger signal-on switching upon ATP binding; sequences stand for … in TCGTCGGCAGCGTCAGATGTGTATAAGAGACAGTTTTTTTTTTTTTTTTTTTTTTTTT…TC
Conditions: aptamer strand: ATP DNA aptamer (quencher-CACCTGGGGGAGTATTGCGGAGGAAGG + anchor), 100 nM annealed; ATP concentration: 500 uM
In short: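 Switching-strand clusters labelled with Cy3 on a modified Illumina MiSeq flow-cell were annealed to 100 nM quencher-labelled ATP aptamer, imaged in selection buffer, and re-imaged after 15 min with 500 uM ATP at 22 °C. This was done over five cycles with NaOH stripping and re-annealing in between. The fluorescence ratio is summed target-cycle over summed buffer-cycle Cy3 intensity per cluster, averaged per switch-domain sequence, excluding clusters outside 100-1000 RFU.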
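Further: ATP exposure 15 min at 22 °C before imaging.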

ATGCGTCGGA
switch fluorescence ratio: 1.032 ± 0.0066

ATGCGTGAGG
switch fluorescence ratio: 1.011 ± 0.0037

ATGCTAAGTG
switch fluorescence ratio: 0.96412 ± 8.8e-05

ATGCTAATTA
switch fluorescence ratio: 1.02 ± 0.024

ATGCTATCGT
switch fluorescence ratio: 1.02 ± 0.014

ATGCTGACCT
switch fluorescence ratio: 1.01 ± 0.034

ATGCTTAGTC
switch fluorescence ratio: 0.964 ± 0.018

ATGCTTGCTG
switch fluorescence ratio: 0.9819 ± 0.0052

ATGGAAAAGG
switch fluorescence ratio: 0.9916 ± 0.0094

ATGGACAGGC
switch fluorescence ratio: 0.912 ± 0.014

ATGGACCGTT
switch fluorescence ratio: 1.02 ± 0.078

ATGGAGGCGC
switch fluorescence ratio: 0.981 ± 0.028

ATGGAGGTTA
switch fluorescence ratio: 0.9695 ± 0.0085

ATGGATATGG
switch fluorescence ratio: 1 ± 0.026

ATGGATCACC
switch fluorescence ratio: 1.019 ± 0.0027

ATGGATCGAT
switch fluorescence ratio: 0.967 ± 0.037

ATGGATGACT
switch fluorescence ratio: 1.04 ± 0.018

ATGGATTTTT
switch fluorescence ratio: 1.012 ± 0.0015

ATGGCAGACA
switch fluorescence ratio: 0.9836 ± 0.0036

ATGGCAGGGC
switch fluorescence ratio: 1.01 ± 0.016

ATGGCAGGTT
switch fluorescence ratio: 1.01 ± 0.021

ATGGCCTTAA
switch fluorescence ratio: 0.982 ± 0.028

ATGGCGGCGT
switch fluorescence ratio: 0.959 ± 0.035

ATGGCTATTC
switch fluorescence ratio: 0.979 ± 0.046

ATGGCTGGGC
switch fluorescence ratio: 1.005 ± 0.0042

ATGGCTTTTG
switch fluorescence ratio: 1.02 ± 0.037

ATGGGAACGG
switch fluorescence ratio: 0.994 ± 0.017

ATGGGAAGAC
switch fluorescence ratio: 1.06 ± 0.017

ATGGGACATT
switch fluorescence ratio: 1.03 ± 0.079

ATGGGACTTT
switch fluorescence ratio: 1.02 ± 0.037

ATGGGAGCTG
switch fluorescence ratio: 0.9831 ± 0.0037

ATGGGATTGG
switch fluorescence ratio: 0.962 ± 0.02

ATGGGATTTA
switch fluorescence ratio: 1.04 ± 0.024

ATGGGCACA
switch fluorescence ratio: 0.99899 ± 0.00092

ATGGGCACGT
switch fluorescence ratio: 0.983 ± 0.019

ATGGGCAGTG
switch fluorescence ratio: 1.02 ± 0.015

ATGGGCCCT
switch fluorescence ratio: 0.997 ± 0.031

ATGGGCCGCT
switch fluorescence ratio: 0.9835 ± 0.0087

ATGGGCGGTA
switch fluorescence ratio: 1.04 ± 0.052

ATGGGCTGCT
switch fluorescence ratio: 1.05 ± 0.062

ATGGGCTTCG
switch fluorescence ratio: 1.01 ± 0.034

ATGGGGAAAG
switch fluorescence ratio: 0.9876 ± 0.0034

ATGGGGAAGT
switch fluorescence ratio: 1.02 ± 0.02

ATGGGGAATG
switch fluorescence ratio: 0.984 ± 0.016

ATGGGGCACT
switch fluorescence ratio: 0.9789 ± 0.0042

ATGGGGCAGG
switch fluorescence ratio: 1.01 ± 0.033

ATGGGGCGGC
switch fluorescence ratio: 0.983 ± 0.026

ATGGGGGACA
switch fluorescence ratio: 0.981 ± 0.012

ATGGGGGCGT
switch fluorescence ratio: 0.994 ± 0.043

ATGGGGGTCC
switch fluorescence ratio: 1.01 ± 0.068

ATGGGGTACA
switch fluorescence ratio: 1.033 ± 0.0032

ATGGGGTAGC
switch fluorescence ratio: 0.995 ± 0.012

ATGGGGTGCG
switch fluorescence ratio: 0.9998 ± 0.0014

ATGGGGTTTG
switch fluorescence ratio: 0.974 ± 0.018

ATGGGTAATC
switch fluorescence ratio: 1.03 ± 0.026

ATGGGTCCGG
switch fluorescence ratio: 1.02 ± 0.037

ATGGGTGATA
switch fluorescence ratio: 0.9935 ± 0.0092

ATGGGTGGGG
switch fluorescence ratio: 1.01 ± 0.037

ATGGGTTGTT
switch fluorescence ratio: 1.01 ± 0.034

ATGGGTTTGG
switch fluorescence ratio: 1.01 ± 0.036

ATGGGTTTTC
switch fluorescence ratio: 0.981 ± 0.03

ATGGTAATGG
switch fluorescence ratio: 1.02 ± 0.016

ATGGTATCT
switch fluorescence ratio: 1.08 ± 0.1

ATGGTGAATG
switch fluorescence ratio: 0.978 ± 0.017

ATGGTGACGG
switch fluorescence ratio: 0.9765 ± 0.0034

ATGGTGGCAG
switch fluorescence ratio: 0.997 ± 0.054

ATGGTGGTGT
switch fluorescence ratio: 1.03 ± 0.013

ATGGTGTCGA
switch fluorescence ratio: 0.947 ± 0.029

ATGGTGTGG
switch fluorescence ratio: 1.02 ± 0.074

ATGGTTATGT
switch fluorescence ratio: 1.03 ± 0.026

ATGGTTCAAC
switch fluorescence ratio: 1.003 ± 0.01

ATGGTTCGGG
switch fluorescence ratio: 0.996 ± 0.014

ATGGTTTCGT
switch fluorescence ratio: 0.996 ± 0.037

ATGGTTTTAT
switch fluorescence ratio: 1.01 ± 0.045

ATGTAAATGA
switch fluorescence ratio: 0.9855 ± 0.0083

ATGTAACGGG
switch fluorescence ratio: 1.03 ± 0.021

ATGTAATATG
switch fluorescence ratio: 0.992 ± 0.024

ATGTACGCTT
switch fluorescence ratio: 1.052 ± 0.0038

ATGTACTGGG
switch fluorescence ratio: 1.08 ± 0.043

ATGTACTTTA
switch fluorescence ratio: 1.06 ± 0.028

ATGTAGAAGG
switch fluorescence ratio: 1 ± 0.029

ATGTAGAGGT
switch fluorescence ratio: 0.9803 ± 0.0074

ATGTAGCATG
switch fluorescence ratio: 1.036 ± 0.0041

ATGTAGCGGT
switch fluorescence ratio: 1.12 ± 0.013

ATGTATAAAT
switch fluorescence ratio: 0.9743 ± 0.009

ATGTATTGAG
switch fluorescence ratio: 1.008 ± 0.0025

ATGTATTTTC
switch fluorescence ratio: 0.986 ± 0.041

ATGTATTTTT
switch fluorescence ratio: 1 ± 0.031

ATGTCACAAA
switch fluorescence ratio: 1.03 ± 0.059

ATGTCGACAC
switch fluorescence ratio: 0.976 ± 0.02

ATGTGAGTTC
switch fluorescence ratio: 0.985 ± 0.022

ATGTGATTTG
switch fluorescence ratio: 0.985 ± 0.035

ATGTGCATAT
switch fluorescence ratio: 1.03 ± 0.02

ATGTGCTGCG
switch fluorescence ratio: 0.993 ± 0.031

ATGTGCTTC
switch fluorescence ratio: 1.005 ± 0.0078

ATGTGGCTAG
switch fluorescence ratio: 1.01 ± 0.032

ATGTGGGCGG
switch fluorescence ratio: 0.991 ± 0.028

ATGTGGGGTT
switch fluorescence ratio: 1.01 ± 0.014

ATGTGGTGGT
switch fluorescence ratio: 1 ± 0.043

ATGTGGTTGT
switch fluorescence ratio: 0.97 ± 0.019

ATGTGTAGAG
switch fluorescence ratio: 0.995 ± 0.027

ATGTGTCTG
switch fluorescence ratio: 0.987 ± 0.014

ATGTGTCTTT
switch fluorescence ratio: 0.979 ± 0.03

ATGTGTTGGT
switch fluorescence ratio: 1 ± 0.011

ATGTTAAAAG
switch fluorescence ratio: 1.01 ± 0.035

ATGTTAACG
switch fluorescence ratio: 0.999 ± 0.043

ATGTTAATCT
switch fluorescence ratio: 1.02 ± 0.035

ATGTTATAGA
switch fluorescence ratio: 0.986 ± 0.034

ATGTTCAACT
switch fluorescence ratio: 0.998 ± 0.016

ATGTTCATGG
switch fluorescence ratio: 0.99 ± 0.043

ATGTTCCTTT
switch fluorescence ratio: 0.999 ± 0.023

ATGTTCGACA
switch fluorescence ratio: 0.965 ± 0.027

ATGTTCGAGA
switch fluorescence ratio: 0.9855 ± 0.0066

ATGTTCGTCA
switch fluorescence ratio: 0.988 ± 0.044

ATGTTCTTCT
switch fluorescence ratio: 0.982 ± 0.018

ATGTTGCCGT
switch fluorescence ratio: 1.01 ± 0.13

ATGTTGCGGG
switch fluorescence ratio: 1 ± 0.041

ATGTTGGGGA
switch fluorescence ratio: 0.996 ± 0.019

ATGTTGGTTG
switch fluorescence ratio: 1.03 ± 0.04

ATGTTGTAAC
switch fluorescence ratio: 0.985 ± 0.01

ATGTTGTAAG
switch fluorescence ratio: 1.01 ± 0.039

ATGTTGTGTT
switch fluorescence ratio: 0.9626 ± 0.0029

ATGTTTAGGG
switch fluorescence ratio: 1.01 ± 0.042

ATGTTTATCA
switch fluorescence ratio: 1.01 ± 0.055

ATGTTTATGG
switch fluorescence ratio: 0.987 ± 0.012

ATGTTTCGC
switch fluorescence ratio: 0.999 ± 0.045

ATGTTTGGGA
switch fluorescence ratio: 0.967 ± 0.047

ATGTTTGGGT
switch fluorescence ratio: 1.01 ± 0.019

ATGTTTGGTG
switch fluorescence ratio: 0.97 ± 0.019

ATGTTTTTCG
switch fluorescence ratio: 0.9718 ± 0.0029

ATGTTTTTGC
switch fluorescence ratio: 1.04 ± 0.1

ATTAAAAATG
switch fluorescence ratio: 1.02 ± 0.042

ATTAAACGAG
switch fluorescence ratio: 1.01 ± 0.031

ATTAAAGGAG
switch fluorescence ratio: 1.01 ± 0.017

ATTAAATACC
switch fluorescence ratio: 1.25 ± 0.29

ATTAAATAGC
switch fluorescence ratio: 1.03 ± 0.043

ATTAAATGAG
switch fluorescence ratio: 1.01 ± 0.022

ATTAAGCCAC
switch fluorescence ratio: 1.12 ± 0.053

ATTAAGTTTG
switch fluorescence ratio: 1 ± 0.031

ATTAATCTTG
switch fluorescence ratio: 1.03 ± 0.046

ATTAATGCGG
switch fluorescence ratio: 1.07 ± 0.032

ATTAATTCCG
switch fluorescence ratio: 1.02 ± 0.0097

ATTACACTGC
switch fluorescence ratio: 1.01 ± 0.066

ATTACATTTT
switch fluorescence ratio: 1.03 ± 0.031

ATTACTCACC
switch fluorescence ratio: 1.44 ± 0.03

ATTAGACATT
switch fluorescence ratio: 1.003 ± 0.0016

ATTAGAGGGA
switch fluorescence ratio: 1.01 ± 0.029

ATTAGAGGTG
switch fluorescence ratio: 1.08 ± 0.03

ATTAGCATCG
switch fluorescence ratio: 0.981 ± 0.026

ATTAGGCAAT
switch fluorescence ratio: 1.22 ± 0.061

ATTAGGTCTG
switch fluorescence ratio: 0.941 ± 0.044

ATTAGTAACG
switch fluorescence ratio: 1.03 ± 0.0071

ATTAGTAAGG
switch fluorescence ratio: 1.01 ± 0.011

ATTAGTGATC
switch fluorescence ratio: 1.003 ± 0.0011

ATTAGTTAGC
switch fluorescence ratio: 1.01 ± 0.05

ATTAGTTATA
switch fluorescence ratio: 0.975 ± 0.029

ATTAGTTGGA
switch fluorescence ratio: 0.99 ± 0.024

ATTAGTTGGC
switch fluorescence ratio: 0.993 ± 0.027

ATTATAGGGT
switch fluorescence ratio: 1.03 ± 0.026

ATTATAGGTT
switch fluorescence ratio: 0.996 ± 0.0091

ATTATAGTCG
switch fluorescence ratio: 1.01 ± 0.036

ATTATATAAT
switch fluorescence ratio: 1.01 ± 0.046

ATTATCTAGG
switch fluorescence ratio: 0.985 ± 0.013

ATTATGAACC
switch fluorescence ratio: 1.04 ± 0.016

ATTATGAATG
switch fluorescence ratio: 0.989 ± 0.0071

ATTATGGGGT
switch fluorescence ratio: 1 ± 0.017

ATTATGTCCA
switch fluorescence ratio: 0.96991 ± 0.00059

ATTATTAGGA
switch fluorescence ratio: 1.04 ± 0.088

ATTATTATGT
switch fluorescence ratio: 0.978 ± 0.01

ATTATTTTAT
switch fluorescence ratio: 1.05 ± 0.069

ATTCAATCGA
switch fluorescence ratio: 1.018 ± 0.0031

ATTCACTTGA
switch fluorescence ratio: 1.08 ± 0.061

ATTCAGGTC
switch fluorescence ratio: 1 ± 0.038

ATTCATATTG
switch fluorescence ratio: 1.01 ± 0.042

ATTCATGGGG
switch fluorescence ratio: 0.98 ± 0.019

ATTCATTAGG
switch fluorescence ratio: 1.02 ± 0.034

ATTCATTTAG
switch fluorescence ratio: 0.996 ± 0.013

ATTCCATGGT
switch fluorescence ratio: 0.9909 ± 0.0052

ATTCCCCGGG
switch fluorescence ratio: 1.66 ± 0.68

ATTCCCGGAT
switch fluorescence ratio: 1.04 ± 0.046

ATTCCGTATA
switch fluorescence ratio: 1.25 ± 0.022

ATTCCTAGA
switch fluorescence ratio: 0.992 ± 0.021

ATTCCTGTT
switch fluorescence ratio: 1.004 ± 0.0019

ATTCGAGGGG
switch fluorescence ratio: 1.03 ± 0.061

ATTCGCAGCC
switch fluorescence ratio: 1.55 ± 0.029

ATTCGCCGGT
switch fluorescence ratio: 0.959 ± 0.0066

ATTCGCCTAG
switch fluorescence ratio: 0.987 ± 0.012

ATTCGGGCTT
switch fluorescence ratio: 0.976 ± 0.013

ATTCGGGGGC
switch fluorescence ratio: 1.11 ± 0.2

ATTCGGTCAT
switch fluorescence ratio: 1 ± 0.015

ATTCGTTGTT
switch fluorescence ratio: 0.997 ± 0.01

ATTCGTTTTG
switch fluorescence ratio: 1.03 ± 0.017

ATTCTCGTTA
switch fluorescence ratio: 0.996 ± 0.0053

ATTCTCTTAT
switch fluorescence ratio: 1.02 ± 0.059

ATTCTGGAAT
switch fluorescence ratio: 1.02 ± 0.06

ATTCTGGGGT
switch fluorescence ratio: 1.04 ± 0.07

ATTCTGTTAG
switch fluorescence ratio: 0.993 ± 0.0092

ATTCTTAGGG
switch fluorescence ratio: 1.12 ± 0.27

ATTCTTATTG
switch fluorescence ratio: 0.9801 ± 0.0021

ATTCTTCTTA
switch fluorescence ratio: 1.028 ± 0.0033
